{
  "source": "paper PMC8655068",
  "about": "“Quantitative proteomic screen identifies annexin A2 as a host target for Salmonella pathogenicity island-2 effectors SopD2 and PipB2” (Scientific Reports, 2021)",
  "molecular_target": "T1, recombinant human His6-tagged annexin A2 (human, UniProt P07355 1-339)",
  "T1 construct": "annexin A2, human, recombinant; No catalogue number is printed; also called His6-AnxA2; His6-tagged AnxA2; source: bought: Novus Biologicals",
  "T1 sequence (P07355 whole entry)": "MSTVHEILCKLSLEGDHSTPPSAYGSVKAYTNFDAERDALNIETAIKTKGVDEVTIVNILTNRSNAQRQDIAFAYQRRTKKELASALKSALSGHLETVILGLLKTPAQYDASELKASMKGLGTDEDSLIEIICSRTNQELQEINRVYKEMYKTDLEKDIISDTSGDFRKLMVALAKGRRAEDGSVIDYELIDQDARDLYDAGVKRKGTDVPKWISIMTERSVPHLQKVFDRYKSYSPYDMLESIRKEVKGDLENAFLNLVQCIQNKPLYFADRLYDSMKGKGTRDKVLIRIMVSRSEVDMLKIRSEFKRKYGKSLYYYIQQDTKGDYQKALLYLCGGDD",
  "assay": "pull-down; about 20 µg concentrated culture supernatant (SPI-2 inducing conditions) mixed with 5 µg His6-annexin A2 overnight at 4 °C; Ni-Sepharose beads 2 h at room temperature; four washes in TBS-T (20 mM Tris-HCl, 150 mM NaCl, 0.75% Triton X-100); Western blot with anti-HA and anti-AnxA2; densitometry of 3 blots, with AnxA2 over without AnxA2",
  "conditions": "one partner purified",
  "data": [
    {"binder": "SopD2-2HA (natural protein, SopD2, T3SS2-secreted effector of Salmonella enterica serovar Typhimurium SL1344, under its native promoter in pACYC184; also called pSopD2-2HA; source: S. Typhimurium SL1344 T3SS2+ ΔsopD2 carrying pSopD2-2HA: translocated into infected HeLa cells, in lysate; secreted under SPI-2 inducing conditions (LPM pH 5.8), concentrated culture supernatant; not shown: 2xHA (tandem HA), C-terminal, kept) MPVTLSFGNRHNYEINHSRLARLMSPDKEEALYMGVWDRFKDCFRTHKKQEVLEVLYTLIHGCERENQAELNVDITGMEKIHAFTQLKEYANPSQQDRFVMRFDMNQTQVLFEIDGKVIDKCNLHRLLNVSENCIFKVMEEDEEELFLKICIKYGEKISRYPELLEGFANKLKDAVNEDDDVKDEVYKLMRSGEDRKMECVEWNGTLTEEEKNKLRCLQMGSFNITTQFFKIGYWELEGEVLFDMVHPTLSYLLQAYKPSLSSDLIETNTMLFSDVLNKDYDDYQNNKREIDAILRRIYRSHNNTLFISEKSSCRNMLI", "values": [
      {"measurement": "fold change of effector pulled down with AnxA2 over without AnxA2", "value": 12.3, "unit": "fold"}
    ]}
  ]
}
